Data reported in the RNAGym collection of RNA variant scans (doi:10.7554/elife.90254).

B1: LINE1-mini (parent)
chain: GGCAGAGCUCAACACAGCGUGGCAAAGUGGCUGUGGCUAGACUGCC

Variants of: B1
Assay: self-cleavage, relative activity (ratio to wild type); higher = more cleavage; in vitro, sequencing; the parent is a self-cleaving ribozyme
Variant GGCAGCGCUCAACACAGCGUGGCAAAGUGGCUGUGGCUAGACUGGC [A6C C45G] has a self-cleavage of 0.09. For GGCAGAGCUCAACACAGCGUGGCAAAGUGGUUGUGGGUAGACUGCC [C31U C37G], the self-cleavage was 0.05. In the case of GGCAGAGCUCAACACAGCGUGGCAAAGUGGCUGUGGCUAGAAUGGC [C42A C45G], the self-cleavage is reported as 0.21. Work on GGCAGAUCUCAAAACAGCGUGGCAAAGUGGCUGUGGCUAGACUGCC [G7U C13A] yielded a self-cleavage of 0.14. With GGCAGAGCUCAACACUGCGUGGCAAAGUGGCUGUGGUUAGACUGCC [A16U C37U] the self-cleavage was 0.06. In the case of GGCAGAGCUCAACACAGCGUGGCUAAUUGGCUGUGGCUAGACUGCC [A24U G27U], the self-cleavage is reported as 0.8. For GGCAGAGCUCAACACAGCGUGGCAAAGUGACUGUCGCUAGACUGCC [G30A G35C], the self-cleavage was 0.08. GGCAGAGCUCAACACAGCGUGGGAAAGUGUCUGUGGCUAGACUGCC [C23G G30U] gave a self-cleavage of 0.75. In the case of GGCAGAGCUCAACACAGCGUGGCAUAGUGGCUGUGGCUAGACUACC [A25U G44A], the self-cleavage is reported as 0.28. For GGCAGAGCACAACACAGCGUGGCAAAGUGGCUGGGGCUAGACUGCC [U9A U34G], the self-cleavage was 0.08. In the case of GGCAGACCUCUACACAGCGUGGCAAAGUGGCUGUGGCUAGACUGCC [G7C A11U], the self-cleavage is reported as 0.04. Variant GGCAGAGCUCGACACAGCGUGGCAAAGUGGCUGUGCCUAGACUGCC [A11G G36C] has a self-cleavage of 0.01. Variant GGCAGAGCUCAACACAGCGUGGCAAAGUGUCUGUGGCUAGACGGCC [G30U U43G] has a self-cleavage of 0.2. Variant GGCAGAGCUCAACACGGCGUGGCAAAGUGACUGUGGCUAGACUGCC [A16G G30A] has a self-cleavage of 0.67. GGCAAAGCUCAACACAGCGUGGCAAAGUGGCUGUGGAUAGACUGCC [G5A C37A] gave a self-cleavage of 0.06. GGCAAAGCUCAACACAGCGUGGCAAAGUGGCUGUGGCUAGACUCCC [G5A G44C] gave a self-cleavage of 0.06. Variant GGCAGAGCUCAACACAGCGUGCCAAAGUGGCUGUGGCUUGACUGCC [G22C A39U] has a self-cleavage of 0.55. Variant GUCAGAGCUCAACACAGCGUGGCAAAGUGGCUGGGGCUAGACUGCC [G2U U34G] has a self-cleavage of 0.03. Work on GGCAGCGCUCAACACAGCGUGGCAAAGUGGCUGUGGCUUGACUGCC [A6C A39U] yielded a self-cleavage of 0.68. GGCAGACCUAAACACAGCGUGGCAAAGUGGCUGUGGCUAGACUGCC [G7C C10A] gave a self-cleavage of 0.04. Variant GGCAGAGCUCAAAACAGCGUGGCAAAGUGGCUGUGGCUCGACUGCC [C13A A39C] has a self-cleavage of 0.17. In the case of GGCAGAGCUCAACACAGCGUGGCAAAGUGGCUGUGGCUAGACUUUC [G44U C45U], the self-cleavage is reported as 0.14. Work on GCCAGAGCUCAACACAGCGUGGCAAAUUGGCUGUGGCUAGACUGCC [G2C G27U] yielded a self-cleavage of 0.14. GGCAGAGUUCAACACAGCGUGGCAAAGUGGCUGCGGCUAGACUGCC [C8U U34C] gave a self-cleavage of 0.18. Work on GGCAGAGCUCAACACAGCGUGGCAAGGUGGCUGUGGCUAAACUGCC [A26G G40A] yielded a self-cleavage of 0.14. Variant GGCAGAGGUCAACACAGCGUGGCAAAGUGGCUGUGGCUAGACUGGC [C8G C45G] has a self-cleavage of 0.08. CGCAGAGCUCAACACAGCGUGGCAAAGUGGCUAUGGCUAGACUGCC [G1C G33A] showed a self-cleavage of 0.03. For GGCAGAGCUCAAGACAGCGUGGCAAAGUGGCUGUGGCUAGACCGCC [C13G U43C], the self-cleavage was 0.02. GGCAGAGCUGAACACAGCGUGGCAACGUGGCUGUGGCUAGACUGCC [C10G A26C] showed a self-cleavage of 0.11. In the case of GGCAUAGCUCAACACAGCGUGGCAAAGUGGCUGUGGCUAGACUGUC [G5U C45U], the self-cleavage is reported as 0.08. GGCAGAGCUCAACACAGCGUGGCAACGUGGCUGUUGCUAGACUGCC [A26C G35U] gave a self-cleavage of 0.09. For GGCAGAGCUCAACACGGCGUGGAAAAGUGGCUGUGGCUAGACUGCC [A16G C23A], the self-cleavage was 0.56. For GGCAGAGCUCAACACAGCGUGGCAAAGUGGCUGUGGCAAGACUGGC [U38A C45G], the self-cleavage was 0.26. In the case of GGCAGAGCUCAACACAGCGUGGCAAGGGGGCUGUGGCUAGACUGCC [A26G U28G], the self-cleavage is reported as 0.37. In the case of GGCAGACCUCAACUCAGCGUGGCAAAGUGGCUGUGGCUAGACUGCC [G7C A14U], the self-cleavage is reported as 0.15. GCCAGAGCUCAACACAGCGUGGCAUAGUGGCUGUGGCUAGACUGCC [G2C A25U] showed a self-cleavage of 0.08. GGCAGAGCUCAACACAGCGUGGCAUAGUGGCUGUCGCUAGACUGCC [A25U G35C] showed a self-cleavage of 0.09. Variant GGCAGAGCUCAACACAGCGUGGCAAAGUGGCCGUAGCUAGACUGCC [U32C G35A] has a self-cleavage of 0.06. With GGCAGAUGUCAACACAGCGUGGCAAAGUGGCUGUGGCUAGACUGCC [G7U C8G] the self-cleavage was 0.32. With GGCAUAUCUCAACACAGCGUGGCAAAGUGGCUGUGGCUAGACUGCC [G5U G7U] the self-cleavage was 0.13. With GGCAGAGCUCAACACAGCGUGGCAAAGUUGCUGUGGCUAGACUGCA [G29U C46A] the self-cleavage was 0.82. GGCAGAGCUCAACAAAGCGUGGCAAAGUGGCCGUGGCUAGACUGCC [C15A U32C] gave a self-cleavage of 0.07. With GGCAGAGCUCAACACAGCGUGGCAAAGUGGCUCUGGCUACACUGCC [G33C G40C] the self-cleavage was 0.07. Variant GGCAGAGCUCAACACAGCGUUGCAAAGUGGCUGUGGCUAUACUGCC [G21U G40U] has a self-cleavage of 0.18. Work on GGCAGAGCUCAACAGAGCGUGGCAACGUGGCUGUGGCUAGACUGCC [C15G A26C] yielded a self-cleavage of 0.04. Variant GGCAGAGCUCAACACAGCGUGGCAAAGUGGCUGGGGCUAGACUACC [U34G G44A] has a self-cleavage of 0.04. Variant GGCAGAGCCCAACACAGCGUGGCAAAGUGGCUGUGGCGAGACUGCC [U9C U38G] has a self-cleavage of 0.04. GGCAGAGCUUAACACAGCGUGGCAAAGUGGCUGUGGCUAGACUGCC [C10U] showed a self-cleavage of 0.34. GGCAGAGCUCAACACAACGUGGCAAAGUGGCUGUGGUUAGACUGCC [G17A C37U] gave a self-cleavage of 0.05. In the case of GGCAGACUUCAACACAGCGUGGCAAAGUGGCUGUGGCUAGACUGCC [G7C C8U], the self-cleavage is reported as 0.2. GGCAGAGCUCAACACAGCGUGGCAAAGUGCCUGUGGCUUGACUGCC [G30C A39U] showed a self-cleavage of 2.23. Variant GGCAGACCUCAACACAGCGUGGCAAAGGGGCUGUGGCUAGACUGCC [G7C U28G] has a self-cleavage of 0.08. With GGCAGAGCUCUACACAGCGUGGCAAACUGGCUGUGGCUAGACUGCC [A11U G27C] the self-cleavage was 0.14. GGCAGAGCUCAACACAGCGUGGCAAAGUGGCUGUGGCUACACUGCC [G40C] showed a self-cleavage of 0.09. GGCAGAGCUCAUCACAGCGUGGCAAAGUGGCUAUGGCUAGACUGCC [A12U G33A] gave a self-cleavage of 0.05. GGCAGAGCUCAACAGAGCGUGGCAAAGGGGCUGUGGCUAGACUGCC [C15G U28G] gave a self-cleavage of 0.04.
